From paper PMC3049835 (Analytical biochemistry, 2011)

Key:
[1] = biological target: SphK1 (Homo sapiens, UniProt Q9NYA1); conditions: read-out: Km with respect to sphingosine, SphK1, previously reported; cited from earlier work
[2] = substrate: CCCCCCCCc1ccc(CCC(N)(CO)CO)cc1; assay: 96-well FlashPlate SphK assay, SphK2; assay type: biochemical; conditions: other: FlashPlate; FTY720 as selective SphK2 substrate; 37.0 °C
[3] = substrate: CCCCCCCCCCCCC/C=C/[C@@H](O)[C@@H](N)CO; assay: 96-well FlashPlate SphK assay, SphK2; assay type: biochemical; conditions: other: FlashPlate; ATP fixed at 250 μM, sphingosine 0–50 μM; 37.0 °C
[4] = substrate: Nc1ncnc2c1ncn2[C@@H]1O[C@H](COP(=O)(O)OP(=O)(O)OP(=O)(O)O)[C@@H](O)[C@H]1O; assay: purified protein, by the assay type; conditions: other: FlashPlate; 5–10 μM sphingosine, ATP 0–600 μM; 37.0 °C

Molecule	Km [1]	Km [2]	Km [3]	Km [4]
CCCCCCCCCCCCC/C=C/[C@@H](O)[C@@H](N)CO [sphingosine, D-erythro-sphingosine]	5 to 17 µM			
SphK2 (Homo sapiens) (protein) MNGHLEAEEQQDQRPDQELTGSWGHGPRSTLVRAKAMAPPPPPLAASTPLLHGEFGSYPARGPRFALTLTSQALHIQRLRPKPEARPRGGLVPLAEVSGCCTLRSRSPSDSAAYFCIYTYPRGRRGARRRATRTFRADGAATYEENRAEAQRWATALTCLLRGLPLPGDGEITPDLLPRPPRLLLLVNPFGGRGLAWQWCKNHVLPMISEAGLSFNLIQTERQNHARELVQGLSLSEWDGIVTVSGDGLLHEVLNGLLDRPDWEEAVKMPVGILPCGSGNALAGAVNQHGGFEPALGLDLLLNCSLLLCRGGGHPLDLLSVTLASGSRCFSFLSVAWGFVSDVDIQSERFRALGSARFTLGTVLGLATLHTYRGRLSYLPATVEPASPTPAHSLPRAKSELTLTPDPAPPMAHSPLHRSVSDLPLPLPQPALASPGSPEPLPILSLNGGGPELAGDWGGAGDAPLSPDPLLSSPPGSPKAALHSPVSEGAPVIPPSSGLPLPTPDARVGASTCGPPDHLLPPLGTPLPPDWVTLEGDFVLMLAISPSHLGADLVAAPHARFDDGLVHLCWVRSGISRAALLRLFLAMERGSHFSLGCPQLGYAAARAFRLEPLTPRGVLTVDGEQVEYGPLQAQMHPGIGTLLTGPPGCPGREP		22 µM	6 µM	79 µM
SphK1 (Homo sapiens) (protein) MSAQVLGFLRSWTPLPLAAPRGPAAAGNDAGAPAATAPGGEGEPHSRPCDARLGSTDKELKAGAAATGSAPTAPGTPWQREPRVEVMDPAGGPRGVLPRPCRVLVLLNPRGGKGKALQLFRSHVQPLLAEAEISFTLMLTERRNHARELVRSEELGRWDALVVMSGDGLMHEVVNGLMERPDWETAIQKPLCSLPAGSGNALAASLNHYAGYEQVTNEDLLTNCTLLLCRRLLSPMNLLSLHTASGLRLFSVLSLAWGFIADVDLESEKYRRLGEMRFTLGTFLRLAALRTYRGRLAYLPVGRVGSKTPASPVVVQQGPVDAHLVPLEEPVPSHWTVVPDEDFVLVLALLHSHLGSEMFAAPMGRCAAGVMHLFYVRAGVSRAMLLRLFLAMEKGRHMEYECPYLVYVPVVAFRLEPKDGKGVFAVDGELMVSEAVQGQVHPNYFWMVSGCVEPPPSWKPQQMPPPEEPL				125 µM
